Test results taken from PMC8799719.

These substances were tested against insoluble type I collagen fibers from bovine achilles tendon, P02453;P02465 (assay: fluorescence detection of EGFP fusion binding to collagen fibers). Settings: parent: est. 100; read off a plot.

Substance | percent of parent [%]
activator domain-EGFP (VhaC activator domain fused to EGFP) Y157A | 42
activator domain-EGFP (VhaC activator domain fused to EGFP) F160A | 86
activator domain-EGFP (VhaC activator domain fused to EGFP) R293A | 93
activator domain-EGFP (VhaC activator domain fused to EGFP) E294A | 85
activator domain-EGFP (VhaC activator domain fused to EGFP) F107A | 20
activator domain-EGFP (VhaC activator domain fused to EGFP) R153A | 32
activator domain-EGFP (VhaC activator domain fused to EGFP) F286A | 51
activator domain-EGFP (VhaC activator domain fused to EGFP) W234A | 69
activator domain-EGFP (VhaC activator domain fused to EGFP) D207A | 70
activator domain-EGFP (VhaC activator domain fused to EGFP) N290A | 88

What follows are substances tested against insoluble type I collagen fibers from bovine achilles tendon, P02453;P02465 (assay: fluorescence detection of EGFP fusion binding to collagen). Settings: parent: est. 100; read off a plot.

Substance | percent of parent [%]
EGFP-PPC (PPC domain of VhaC fused to EGFP) Y788A | 73
EGFP-PPC (PPC domain of VhaC fused to EGFP) W789A | 19
EGFP-PPC (PPC domain of VhaC fused to EGFP) D751A | 3
EGFP-PPC (PPC domain of VhaC fused to EGFP) E778A | 21
EGFP-PPC (PPC domain of VhaC fused to EGFP) W729A | 58
EGFP-PPC (PPC domain of VhaC fused to EGFP) Y756A | 9
EGFP-PPC (PPC domain of VhaC fused to EGFP) W770A | 100
EGFP-PPC (PPC domain of VhaC fused to EGFP) W761A | 7
EGFP-PPC (PPC domain of VhaC fused to EGFP) E755A | 51
EGFP-PPC (PPC domain of VhaC fused to EGFP) Y791A | 13
EGFP-PPC (PPC domain of VhaC fused to EGFP) K753A | 100
